Experimental findings from patent US20150344863 are described below.

The series has as its target Factor X, P00742.

Chain of Factor X, P00742 (P00742 whole entry, looked up): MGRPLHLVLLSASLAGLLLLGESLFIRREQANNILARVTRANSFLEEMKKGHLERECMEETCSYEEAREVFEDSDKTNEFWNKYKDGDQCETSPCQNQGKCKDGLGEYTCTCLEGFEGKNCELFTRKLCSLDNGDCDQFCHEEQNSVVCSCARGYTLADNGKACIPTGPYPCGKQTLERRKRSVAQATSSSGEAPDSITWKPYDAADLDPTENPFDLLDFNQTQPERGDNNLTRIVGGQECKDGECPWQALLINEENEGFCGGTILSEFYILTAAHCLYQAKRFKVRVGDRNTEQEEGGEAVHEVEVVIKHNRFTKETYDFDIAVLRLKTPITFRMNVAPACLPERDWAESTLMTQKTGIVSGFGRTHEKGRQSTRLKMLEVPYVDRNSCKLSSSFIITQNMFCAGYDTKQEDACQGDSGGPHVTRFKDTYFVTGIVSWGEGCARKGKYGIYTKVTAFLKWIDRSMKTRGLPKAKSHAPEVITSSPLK

B1: desialylated wild-type Factor VII (dWT VIIa) (protein)
chain 1: ANAFLEELRPGSLERECKEEQCSFEEAREIFKDAERTKLFWISYSDGDQCASSPCQNGGSCKDQLQSYICFCLPAFEGRNCETHKDDQLICVNENGGCEQYCSDHTGTKRSCRCHEGYSLLADGVSCTPTVEYPCGKIPILEKRNASKPQGR
chain 2: IVGGKVCPKGECPWQVLLLVNGAQLCGGTLINTIWVVSAAHCFDKIKNWRNLIAVLGEHDLSEHDGDEQSRRVAQVIIPSTYVPGTTNHDIALLRLHQPVVLTDHVVPLCLPERTFSERTLAFVRFSLVSGWGQLLDRGATALELMVLNVPRLMTQDCLQQSRKVGDSPNITEYMFCAGYSDGSKDSCKGDSGGPHATHYRGTWYLTGIVSWGQGCATVGHFGVYTRVSQYIEWLQKLMRSEPRPGVLLRAPFP
B1: the “Michaelis Menten kinetics of Factor X activation, Factor X titrated in the presence of sTF-Factor VII complexes (0.5 nM Factor VII, 125 nM sTF)” value was “dWT VIIa (dF7) can activate Factor X more effectively (approximately 2-fold) than wild-type Factor VII (F7)”.
